Measurements: article PMC11921551

How the values were obtained:
[1] = molecular target: Recombinant human LDL receptor (LDLR) (human) (UniProt P01130); experiment: AFM force spectroscopy; LDLR on the AFM probe through PEG (traditional immersion method), LDL immobilised on mica; PBS pH 7.4, 37 °C; n = 200 interactions
[2] = molecular target: Recombinant human LDL receptor (LDLR) (human) (UniProt P01130); experiment: AFM force spectroscopy; receptor on the AFM probe tip through PEG (micro-droplet method), lipoprotein immobilised on mica; PBS pH 7.4, 37 °C, loading force 0.5 nN for 2 s, loading speed 200 nm/s; n = 200 interactions
[3] = molecular target: Recombinant human CD36 (human) (UniProt P16671); experiment: as above

Recombinant human LDL receptor (LDLR) (human), sequence (P01130 22-788): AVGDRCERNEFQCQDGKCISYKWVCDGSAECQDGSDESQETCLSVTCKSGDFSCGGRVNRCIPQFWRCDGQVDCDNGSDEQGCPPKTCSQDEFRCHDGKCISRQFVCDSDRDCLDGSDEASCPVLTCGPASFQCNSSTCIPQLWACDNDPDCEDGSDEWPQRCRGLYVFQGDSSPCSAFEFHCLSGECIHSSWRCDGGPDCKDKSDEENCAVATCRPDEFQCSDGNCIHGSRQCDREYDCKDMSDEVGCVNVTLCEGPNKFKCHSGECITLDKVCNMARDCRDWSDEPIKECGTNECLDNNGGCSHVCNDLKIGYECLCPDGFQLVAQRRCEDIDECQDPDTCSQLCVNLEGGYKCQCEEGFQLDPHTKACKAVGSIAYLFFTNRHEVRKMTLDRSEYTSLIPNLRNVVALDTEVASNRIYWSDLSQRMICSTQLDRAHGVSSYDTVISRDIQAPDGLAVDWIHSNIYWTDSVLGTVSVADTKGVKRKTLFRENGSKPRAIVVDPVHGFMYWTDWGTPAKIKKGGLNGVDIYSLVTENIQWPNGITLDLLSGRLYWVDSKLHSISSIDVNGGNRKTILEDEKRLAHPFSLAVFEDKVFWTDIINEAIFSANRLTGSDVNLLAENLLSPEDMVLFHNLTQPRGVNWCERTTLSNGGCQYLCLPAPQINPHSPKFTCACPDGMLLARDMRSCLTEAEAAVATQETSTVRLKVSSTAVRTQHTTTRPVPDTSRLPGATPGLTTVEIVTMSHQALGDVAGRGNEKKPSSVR

Human low-density lipoprotein (LDL), P04114 28-4563
average specific interaction force [1]: 322 pN
average specific interaction force [2]: 231 pN

Human oxidized low-density lipoprotein (oxLDL) (from UniProt P04114 28-4563) (complex)
average interaction force [3]: 229 pN
